# Source: IntAct's records for PubMed 19081061
# B1: Pyruvate dehydrogenase E1 component subunit alpha, somatic form, mitochondrial (Homo sapiens), P08559-1 (parent)
# chain: MRKMLAAVSRVLSGASQKPASRVLVASRNFANDATFEIKKCDLHRLEEGPPVTTVLTREDGLKYYRMMQTVRRMELKADQLYKQKIIRGFCHLCDGQEACCVGLEAGINPTDHLITAYRAHGFTFTRGLSVREILAELTGRKGGCAKGKGGSMHMYAKNFYGGNGIVGAQVPLGAGIALACKYNGKDEVCLTLYGDGAANQGQIFEAYNMAALWKLPCIFICENNRYGMGTSVERAAASTDYYKRGDFIPGLRVDGMDILCVREATRFAAAYCRSGKGPILMELQTYRYHGHSMSDPGVSYRTREEIQEVRSKSDPIMLLKDRMVNSNLASVEELKEIDVEVRKEIEDAAQFATADPEPPLEELGYHIYSSDPPFEVRGANQWIKFKSVS
# partner: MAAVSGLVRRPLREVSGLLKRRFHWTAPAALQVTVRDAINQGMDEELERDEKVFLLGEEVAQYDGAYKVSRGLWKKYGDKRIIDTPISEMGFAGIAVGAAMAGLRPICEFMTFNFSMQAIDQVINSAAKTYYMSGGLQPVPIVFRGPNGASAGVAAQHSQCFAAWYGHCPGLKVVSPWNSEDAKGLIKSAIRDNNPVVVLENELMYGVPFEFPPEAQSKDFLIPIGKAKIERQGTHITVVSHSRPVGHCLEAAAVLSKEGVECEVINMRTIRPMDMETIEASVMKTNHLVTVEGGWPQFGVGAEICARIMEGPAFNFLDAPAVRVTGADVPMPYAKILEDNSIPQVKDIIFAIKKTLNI
# Variants of: B1
# Conditions: with PDHB
row,effect of a mutation on the interaction,Variant
1,with no effect,Y118F
2,with no effect,S232A;S300A
